Test system: Escherichia coli TOP10
Assay: shrunken log2 fold change of peptide-encoding DNA abundance (4.5 h post-induction vs induction); higher = less antimicrobial activity (less host growth inhibition)
Settings: time post-induction: 4.5 h; library: site-saturation at positions 5, 18, 19, 20
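Further: peptides expressed intracellularly from a pBAD plasmid library in pooled LB shake-flask culture, induced with 0.3% L-arabinose, DNA abundance read by NGS, three biological replicates, DESeq2 with apeglm shrinkage.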

Sequence	shrunken log2 fold change
RRIRARPPRLPRPRPRPNNEPRP	-0.14
RRIRYRPPRLPRPRPRPSNWPRP	-0.385
RRIRVRPPRLPRPRPRPVAWPRP	0.421
RRIRDRPPRLPRPRPRPYGYPRP	-0.575
RRIRFRPPRLPRPRPRPLPPPRP	0.828
RRIRHRPPRLPRPRPRPEWGPRP	0.209
RRIRKRPPRLPRPRPRPNYIPRP	-0.0745
RRIRYRPPRLPRPRPRPYSWPRP	-0.156
RRIRSRPPRLPRPRPRPTRCPRP	0.264
RRIRVRPPRLPRPRPRPWGAPRP	0.21
RRIRGRPPRLPRPRPRPGGIPRP	0.402
RRIRLRPPRLPRPRPRPSSTPRP	-0.278
RRIRRRPPRLPRPRPRPECLPRP	0.635
RRIRKRPPRLPRPRPRPNYMPRP	-0.117
RRIRKRPPRLPRPRPRPLRRPRP	0.689
RRIRERPPRLPRPRPRPGTMPRP	0.0721
RRIRARPPRLPRPRPRPTAGPRP	0.902
RRIRWRPPRLPRPRPRPLCHPRP	-0.0785
RRIRCRPPRLPRPRPRPVIEPRP	-0.141
RRIRKRPPRLPRPRPRPYKLPRP	-0.281
RRIRRRPPRLPRPRPRPPNGPRP	0.407
RRIRRRPPRLPRPRPRPRNDPRP	0.195

Sequence	shrunken log2 fold change
RRIRCRPPRLPRPRPRPCFQPRP	-0.212
RRIRKRPPRLPRPRPRPYPFPRP	0.00884
RRIRRRPPRLPRPRPRPDDNPRP	0.18
RRIRQRPPRLPRPRPRPSCTPRP	-0.167
RRIRHRPPRLPRPRPRPYFWPRP	-0.258
RRIRIRPPRLPRPRPRPCFTPRP	-0.519
RRIRDRPPRLPRPRPRPSWKPRP	-0.015
RRIRGRPPRLPRPRPRPCESPRP	0.169
RRIRERPPRLPRPRPRPWVSPRP	-0.0377
RRIRQRPPRLPRPRPRPILLPRP	-0.0814
RRIRYRPPRLPRPRPRPTRKPRP	0.00746
RRIRHRPPRLPRPRPRPGFQPRP	-0.0167
RRIRCRPPRLPRPRPRPTVTPRP	-0.208
RRIRMRPPRLPRPRPRPWRWPRP	0.205
RRIRGRPPRLPRPRPRPHRAPRP	0.108
RRIRSRPPRLPRPRPRPDLYPRP	-0.171
RRIRRRPPRLPRPRPRPNLAPRP	0.176
RRIRCRPPRLPRPRPRPWVMPRP	-0.221
RRIRDRPPRLPRPRPRPEIVPRP	0.048
RRIRVRPPRLPRPRPRPDDNPRP	-0.0966
RRIRFRPPRLPRPRPRPQWIPRP	-0.148
RRIRGRPPRLPRPRPRPMHVPRP	0.0539

Sequence	shrunken log2 fold change
RRIRPRPPRLPRPRPRPMARPRP	0.154
RRIRWRPPRLPRPRPRPYFFPRP	-0.245
RRIRKRPPRLPRPRPRPRCAPRP	0.568
RRIRQRPPRLPRPRPRPESHPRP	-0.159
RRIRPRPPRLPRPRPRPACNPRP	0.00285
RRIRSRPPRLPRPRPRPCSCPRP	0.000754
RRIRPRPPRLPRPRPRPNFCPRP	0.257
RRIRQRPPRLPRPRPRPSVAPRP	-0.0735
RRIRQRPPRLPRPRPRPITWPRP	0.129
RRIRERPPRLPRPRPRPDQDPRP	-0.00875
RRIRYRPPRLPRPRPRPFKNPRP	-0.426
RRIRDRPPRLPRPRPRPPESPRP	0.822
RRIRFRPPRLPRPRPRPGPPPRP	0.909
RRIRNRPPRLPRPRPRPWGSPRP	-0.275
RRIRYRPPRLPRPRPRPLNVPRP	0.0468
RRIRMRPPRLPRPRPRPIFNPRP	-0.257
RRIRYRPPRLPRPRPRPPSIPRP	-0.285
RRIRERPPRLPRPRPRPIQHPRP	-0.529
RRIRFRPPRLPRPRPRPVTDPRP	0.00378
RRIRYRPPRLPRPRPRPSNCPRP	-0.107
RRIRWRPPRLPRPRPRPCEIPRP	-0.243
RRIRIRPPRLPRPRPRPFHIPRP	-0.127

Sequence	shrunken log2 fold change
RRIRCRPPRLPRPRPRPDQDPRP	0.0433
RRIRLRPPRLPRPRPRPCSTPRP	-0.0337
RRIRCRPPRLPRPRPRPMYGPRP	-0.675
RRIRRRPPRLPRPRPRPIPQPRP	0.336
RRIRGRPPRLPRPRPRPPRIPRP	0.719
RRIRMRPPRLPRPRPRPRRIPRP	0.767
RRIRRRPPRLPRPRPRPKSLPRP	0.0308
RRIRTRPPRLPRPRPRPKAIPRP	0.00211
RRIRTRPPRLPRPRPRPFCYPRP	-0.24
RRIRIRPPRLPRPRPRPRFAPRP	0.129
RRIRGRPPRLPRPRPRPVRHPRP	0.496
RRIRIRPPRLPRPRPRPMNQPRP	-0.169
RRIRCRPPRLPRPRPRPTGEPRP	0.156
RRIRYRPPRLPRPRPRPYISPRP	-0.00213
RRIRGRPPRLPRPRPRPIYIPRP	-0.0529
RRIRDRPPRLPRPRPRPTFNPRP	-0.0925
RRIRKRPPRLPRPRPRPAKRPRP	2.15
RRIRYRPPRLPRPRPRPEEMPRP	-0.0902
RRIRCRPPRLPRPRPRPWNWPRP	-0.0303
RRIRLRPPRLPRPRPRPIWWPRP	0.94
RRIRCRPPRLPRPRPRPLWTPRP	-0.00711
RRIRYRPPRLPRPRPRPHARPRP	-0.163

Sequence	shrunken log2 fold change
RRIRARPPRLPRPRPRPFGCPRP	0.128
RRIRYRPPRLPRPRPRPIFYPRP	-0.638
RRIRLRPPRLPRPRPRPTRMPRP	0.513
RRIRPRPPRLPRPRPRPYTAPRP	-1.06
RRIRARPPRLPRPRPRPTQTPRP	0.69
RRIRCRPPRLPRPRPRPLTSPRP	0.208
RRIRKRPPRLPRPRPRPWPQPRP	0.0865
RRIRLRPPRLPRPRPRPSAKPRP	-0.0639
RRIRFRPPRLPRPRPRPSYWPRP	-0.519
RRIRARPPRLPRPRPRPRDDPRP	0.647
RRIRCRPPRLPRPRPRPCDHPRP	0.0959
RRIRPRPPRLPRPRPRPEHWPRP	0.226
RRIRNRPPRLPRPRPRPNDCPRP	0.0423
RRIRRRPPRLPRPRPRPRAGPRP	0.638
RRIRNRPPRLPRPRPRPHADPRP	-0.315
RRIRLRPPRLPRPRPRPTCIPRP	-0.123
RRIRFRPPRLPRPRPRPWFQPRP	-0.285
RRIRERPPRLPRPRPRPMYYPRP	-0.241
RRIRDRPPRLPRPRPRPMSRPRP	-0.107
RRIRRRPPRLPRPRPRPISTPRP	-0.0842
RRIRSRPPRLPRPRPRPVDFPRP	-0.0272
